Assay results as given in patent US20110257105A1 (CARA THERAPEUTICS, published 2011).
Square brackets hold non-standard residues; d marks the D form. Ends that are not written are not given here. dAgb = N=C(N)NCC[C@@H](N)C(=O)O; dNle = CCCC[C@@H](N)C(=O)O

Target: mouse kappa opioid receptor (mouse) (UniProt P33534)
Test: cell-based or functional assay

Sequence of mouse kappa opioid receptor (mouse) (P33534 whole entry): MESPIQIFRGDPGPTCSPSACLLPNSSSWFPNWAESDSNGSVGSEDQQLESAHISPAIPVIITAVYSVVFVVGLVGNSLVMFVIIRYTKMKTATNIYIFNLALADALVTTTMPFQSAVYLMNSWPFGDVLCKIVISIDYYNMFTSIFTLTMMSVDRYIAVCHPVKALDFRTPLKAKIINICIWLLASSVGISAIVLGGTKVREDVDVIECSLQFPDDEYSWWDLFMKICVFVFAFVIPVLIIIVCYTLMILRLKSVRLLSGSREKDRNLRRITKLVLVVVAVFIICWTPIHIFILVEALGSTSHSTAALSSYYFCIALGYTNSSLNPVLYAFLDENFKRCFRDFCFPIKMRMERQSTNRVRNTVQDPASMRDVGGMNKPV

Molecule | EC50 (nM), cAMP inhibition in R1.G1 cells [nM] | Efficacy(%), cAMP inhibition in R1.G1 cells [%]
Compound (39): D-Phe-D-Phe-D-Leu-D-Orn-[eLys(D-Orn-D-Leu-H)]-OH (peptide) | 67.3 | 35
[dF][dF][dL][dK]G (not fully specified (bridges); printed as D-Phe-D-Phe-D-Leu-(D-Lys-GlyLactam)2-D-Leu-D-Phe-D-Phe; also: two chains joined through (D-Lys-Gly lactam)2 linker) [Compound (52): D-Phe-D-Phe-D-Leu-(D-Lys-GlyLactam)2-D-Leu-D-Phe-D-Phe] | 13.8 | 76

Target: mouse kappa opioid receptor (mouse, UniProt P33534 1-380)
Sequence (P33534 whole entry): as above
Test: cell-based or functional assay

Molecule | EC50 (nM), cAMP inhibition in R1.G1 cells [nM] | Efficacy(%), cAMP inhibition in R1.G1 cells [%]
[dF][dF][dL][dAgb]-{4‑amino‑4‑carboxylic piperidine} (also: two identical chains joined through C-termini to N1 and 4-amino group of piperidine scaffold) [Compound (51): 1N,4N-bis-(D-Phe-D-Phe-D-Leu-D-Nar)-4-amino-4-carboxylic piperidine] | 95.8 | 60
[dF][dF][dL][dOrn(iPr)]-{4‑amino‑4‑carboxylic piperidine} (also: two identical chains joined through C-termini to N1 and 4-amino group of piperidine scaffold) [Compound (49): 1N,4N-bis-[D-Phe-D-Phe-D-Leu-(iPr)D-Orn]-4-amino-4-carboxylic-piperidine] | 1.83 | 50
[dF][dF][dL][dDap(amidino)]-{4‑amino‑4‑carboxylic piperidine} (also: two identical chains joined through C-termini to N1 and 4-amino group of piperidine scaffold) [Compound (50): 1N,4N-bis-[D-Phe-D-Phe-D-Leu-D-Dap(amidino)]-4-amino-4-carboxylic piperidine] | 56.7 | 77
[dF][dF][dNle][dR][dP]-OH (N-terminus assumed; SMILES CCCC[C@@H](NC(=O)[C@@H](Cc1ccccc1)NC(=O)[C@H](N)Cc1ccccc1)C(=O)N[C@H](CCCNC(=N)N)C(=O)N1CCC[C@@H]1C(=O)O) [Compound (3): D-Phe-D-Phe-D-Nle-D-Arg-D-Pro-OH] | 9.05 | 88
